Residue numbers refer to the chain shown, from its start. Numbers in names are those of the source. Blank lines part the entries; values can stand above or below the binder they belong to.
What was measured:
[1] = molecular target: T1, thermostable variant of Streptomyces mobaraensis transglutaminase (Streptomyces mobaraensis, UniProt P81453 79-407); assay: cell-based or functional assay
T1 sequence: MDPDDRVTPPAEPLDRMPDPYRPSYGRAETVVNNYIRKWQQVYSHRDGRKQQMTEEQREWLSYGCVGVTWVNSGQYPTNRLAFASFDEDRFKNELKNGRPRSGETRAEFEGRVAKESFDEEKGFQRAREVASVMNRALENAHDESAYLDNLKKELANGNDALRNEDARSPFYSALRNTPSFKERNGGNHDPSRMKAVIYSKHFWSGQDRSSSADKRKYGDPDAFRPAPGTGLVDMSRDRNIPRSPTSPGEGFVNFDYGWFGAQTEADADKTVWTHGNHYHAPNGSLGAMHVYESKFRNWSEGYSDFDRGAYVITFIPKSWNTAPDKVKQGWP

[2] = molecular target: T1, thermostable variant of Streptomyces …; assay: cell-based or functional assay; remark: listed apart in the source

Improvement in pH responsiveness of inhibitory peptide relative to WT [1]: > 5 fold | Improvement in binding affinity of inhibitory peptide relative to WT [2]: > 1.2 fold
B7: pro-peptide variant E7V (peptide)
peptide: MDNGAGVETKSYAETYRLTADDVANINALNESAPAASSAGPSFRAP

Improvement in pH responsiveness of inhibitory peptide relative to WT [1]: > 1.2 fold | Improvement in binding affinity of inhibitory peptide relative to WT [2]: > 1.2 fold
B10: pro-peptide variant E8C (peptide)
peptide: B7 peptide with V7E, E8C

Improvement in pH responsiveness of inhibitory peptide relative to WT [1]: > 1.2 fold | Improvement in binding affinity of inhibitory peptide relative to WT [2]: > 1.2 fold
B12: pro-peptide variant E8L (peptide)
peptide: B7 peptide with V7E, E8L

Improvement in pH responsiveness of inhibitory peptide relative to WT [1]: > 5 fold | Improvement in binding affinity of inhibitory peptide relative to WT [2]: > 1.2 fold
B13: pro-peptide variant E8Q (peptide)
peptide: B7 peptide with V7E, E8Q

Improvement in binding affinity of inhibitory peptide relative to WT [2]: > 1.2 fold
B15: pro-peptide variant I26V (peptide)
peptide: B7 peptide with V7E, I26V

Improvement in pH responsiveness of inhibitory peptide relative to WT [1]: > 1.2 fold | Improvement in binding affinity of inhibitory peptide relative to WT [2]: > 1.2 fold
B17: pro-peptide variant E8N (peptide)
peptide: B7 peptide with V7E, E8N

Second part, the binder before the results:

B1: pro-peptide truncation variant ΔP46 (peptide)
peptide: MDNGAGEETKSYAETYRLTADDVANINALNESAPAASSAGPSFRA
Improvement in pH responsiveness of inhibitory peptide relative to WT [1]: > 1.2 fold | Improvement in binding affinity of inhibitory peptide relative to WT [2]: > 1.2 fold

B2: pro-peptide variant D2I (peptide)
peptide: B7 peptide with D2I, V7E
Improvement in pH responsiveness of inhibitory peptide relative to WT [1]: > 1.2 fold | Improvement in binding affinity of inhibitory peptide relative to WT [2]: > 1.2 fold

B3: pro-peptide variant E7S (peptide)
peptide: B7 peptide with V7S
Improvement in pH responsiveness of inhibitory peptide relative to WT [1]: > 5 fold | Improvement in binding affinity of inhibitory peptide relative to WT [2]: > 1.2 fold

B4: pro-peptide variant D2S (peptide)
peptide: B7 peptide with D2S, V7E
Improvement in pH responsiveness of inhibitory peptide relative to WT [1]: > 1.2 fold | Improvement in binding affinity of inhibitory peptide relative to WT [2]: > 1.2 fold

B5: pro-peptide variant D2T (peptide)
peptide: B7 peptide with D2T, V7E
Improvement in pH responsiveness of inhibitory peptide relative to WT [1]: > 1.2 fold | Improvement in binding affinity of inhibitory peptide relative to WT [2]: > 1.2 fold

B6: pro-peptide variant E7L (peptide)
peptide: B7 peptide with V7L
Improvement in pH responsiveness of inhibitory peptide relative to WT [1]: > 1.2 fold | Improvement in binding affinity of inhibitory peptide relative to WT [2]: > 1.2 fold

B8: pro-peptide variant E7T (peptide)
peptide: B7 peptide with V7T
Improvement in pH responsiveness of inhibitory peptide relative to WT [1]: > 1.2 fold | Improvement in binding affinity of inhibitory peptide relative to WT [2]: > 1.2 fold

B9: pro-peptide variant E7N (peptide)
peptide: B7 peptide with V7N
Improvement in pH responsiveness of inhibitory peptide relative to WT [1]: > 5 fold | Improvement in binding affinity of inhibitory peptide relative to WT [2]: > 1.2 fold

B11: pro-peptide variant E7C (peptide)
peptide: B7 peptide with V7C
Improvement in pH responsiveness of inhibitory peptide relative to WT [1]: > 1.2 fold | Improvement in binding affinity of inhibitory peptide relative to WT [2]: > 1.2 fold

B14: pro-peptide variant D2P (peptide)
peptide: B7 peptide with D2P, V7E
Improvement in pH responsiveness of inhibitory peptide relative to WT [1]: > 5 fold | Improvement in binding affinity of inhibitory peptide relative to WT [2]: > 1.2 fold

B16: pro-peptide variant D2Q (peptide)
peptide: B7 peptide with D2Q, V7E
Improvement in pH responsiveness of inhibitory peptide relative to WT [1]: > 1.2 fold | Improvement in binding affinity of inhibitory peptide relative to WT [2]: > 1.2 fold

From US20250304927A1, “PRO-PEPTIDE VARIANTS FOR MODULATING ACTIVITY OF TRANSGLUTAMINASES” (CURIE CO. INC., priority 2022, published 2025)
